Measured values as given in patent US20260234252A1 (Janssen / Centocor, published 2026).
Where “and” joins values, the source holds several entries; their conditions need not be identical. Equal values may be shown once.

B1: VB11 (anti-Vβ17/anti-CD123) bispecific antibody (bispecific antibody, human IgG4 S228P, kappa, F234A L235A)
heavy 1: QVQLQESGPGLVKPSETLSLTCTVSGYSITSGYFWNWIRQPPGKGLEWIGYISYDGSNNYNPSLKSRVTISRDTSKNQFSLKLSSVTAADTAVYYCASPSPGTGYAVDYWGQGTLVTVSSASTKGPSVFPLAPCSRSTSESTAALGCLVKDYFPEPVTVSWNSGALTSGVHTFPAVLQSSGLYSLSSVVTVPSSSLGTKTYTCNVDHKPSNTKVDKRVESKYGPPCPPCPAPEAAGGPSVFLFPPKPKDTLMISRTPEVTCVVVDVSQEDPEVQFNWYVDGVEVHNAKTKPREEQFNSTYRVVSVLTVLHQDWLNGKEYKCKVSNKGLPSSIEKTISKAKGQPREPQVYTLPPSQEEMTKNQVSLSCAVKGFYPSDIAVEWESNGQPENNYKTTPPVLDSDGSFFLVSRLTVDKSRWQEGNVFSCSVMHEALHNRFTQKSLSLSLGK
light 1: DIQMTQSPSSLSASVGDRVTITCRSSQSLVHSNGNTYLHWYQQKPGKAPKFLIYKVSNRFSGVPSRFSGSGSGTDFTLTISSLQPEDFATYYCSQSTHVPFTFGQGTKLEIKRTVAAPSVFIFPPSDEQLKSGTASVVCLLNNFYPREAKVQWKVDNALQSGNSQESVTEQDSKDSTYSLSSTLTLSKADYEKHKVYACEVTHQGLSSPVTKSFNRGEC
heavy 2: EVQLVQSGAEVKKPGESLKISCKGSGYSFTSYWISWVRQMPGKGLEWMGIIDPSDSDTRYSPSFQGQVTISADKSISTAYLQWSSLKASDTAMYYCARGDGSTDLDYWGQGTLVTVSSASTKGPSVFPLAPCSRSTSESTAALGCLVKDYFPEPVTVSWNSGALTSGVHTFPAVLQSSGLYSLSSVVTVPSSSLGTKTYTCNVDHKPSNTKVDKRVESKYGPPCPPCPAPEAAGGPSVFLFPPKPKDTLMISRTPEVTCVVVDVSQEDPEVQFNWYVDGVEVHNAKTKPREEQFNSTYRVVSVLTVLHQDWLNGKEYKCKVSNKGLPSSIEKTISKAKGQPREPQVYTLPPSQEEMTKNQVSLWCLVKGFYPSDIAVEWESNGQPENNYKTTPPVLDSDGSFFLYSRLTVDKSRWQEGNVFSCSVMHEALHNHYTQKSLSLSLGK
light 2: EIVLTQSPGTLSLSPGERATLSCRASQSVSSSYLAWYQQKPGQAPRLLIYGASSRATGIPDRFSGSGSGTDFTLTISRLEPEDFAVYYCQQDYGFPWTFGQGTKVEIKRTVAAPSVFIFPPSDEQLKSGTASVVCLLNNFYPREAKVQWKVDNALQSGNSQESVTEQDSKDSTYSLSSTLTLSKADYEKHKVYACEVTHQGLSSPVTKSFNRGEC
notes: also called Vβ17 and CD123 bispecific
B2: VB13 (Vβ17×Null) bispecific antibody (bispecific antibody, human IgG4 S228P, kappa, F234A L235A)
heavy 1: B1 heavy 1
light 1: B1 light 1
heavy 2: not shown
light 2: not shown
notes: also called Vβ17XNULL; Vβ17 x Null

Molecular target: T1, Vβ17 on human CD8+ T cells (human)
T1 construct: whole, on cells; Polyclonal donor T cells; also called Vβ17+ CD8+ T cells; M1-stimulated T-cells
T1 sequence (A0A075B6N1 22-114): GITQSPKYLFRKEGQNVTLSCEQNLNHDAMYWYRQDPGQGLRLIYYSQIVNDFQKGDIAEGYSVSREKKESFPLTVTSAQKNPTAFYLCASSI
Assay: flow cytometry on FLU MP 58 stimulated CD8+ T cells, anti-human IgG4 Fc-PE
Procedure: Mouse anti-human IgG4 Fc-PE secondary antibody was used to detect the bispecific antibody.
Bispecific antibody binding affinities to CD8+ T cell were determined by flow cytometry.

Binder	EC50
B1	1.35 µg/mL and 9 nM
B2	2.8 µg/mL and 18.7 nM
